Laboratory results from publication PMC4860839, “Structures of the APC–ARM domain in complexes with discrete Amer1/WTX fragments reveal that it uses a consensus mode to recognize its binding partners” (Cell Discovery, 2015).

Biological target: T1, APC–ARM, human APC (407–751), N-terminally His-tagged (human, UniProt P25054 407-751)
T1 construct: human APC, armadillo repeat (ARM) domain, residues 407–751; source: E. coli BL21(DE3), purified (Ni2+-NTA, Superdex200)
T1 sequence (looked up): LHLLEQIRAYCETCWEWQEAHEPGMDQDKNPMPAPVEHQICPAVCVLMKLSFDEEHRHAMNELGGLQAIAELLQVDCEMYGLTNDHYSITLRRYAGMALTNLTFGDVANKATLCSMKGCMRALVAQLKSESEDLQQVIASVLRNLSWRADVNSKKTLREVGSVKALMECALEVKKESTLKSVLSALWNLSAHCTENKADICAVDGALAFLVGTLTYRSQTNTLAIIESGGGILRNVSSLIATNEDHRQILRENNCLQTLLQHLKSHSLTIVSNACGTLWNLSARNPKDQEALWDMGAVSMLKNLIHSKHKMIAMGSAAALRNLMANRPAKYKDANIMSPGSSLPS
Assay: pull-down; competition: GST-Amer1-A2/APC–ARM complex (0.5 mg/ml, 4 ml) preloaded on the GST column at 4 °C; 0.1, 0.2, 0.5, 1 mg/ml Asef ABR-SH3 (0.5 ml) added; SDS–PAGE, Coomassie
Details: both partners purified

binding result: binds
B1: Asef-ABR-SH3 (residues 170–271) (domain or fragment, human, UniProt Q9NR80 170-271, looked up)
chain: SSSHHYSHPGGGGEQLAINELISDGSVVCAEALWDHVTMDDQELGFKAGDVIEVMDATNREWWWGRVADGEGWFPASFVRLRVNQDEPADDDAPLAGNSGAE
notes: Added as a protein at stated concentrations; its expression and purification are not described; also called ABR-SH3 domain of Asef
